According to the nanobody polyreactivity screen of Harvey et al. (2022):

Assay: yeast display, Sf9 membrane polyspecificity reagent, FACS + sequencing; frameworks hold sequencing errors
Summary of the method: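 A synthetic nanobody library was expressed on Saccharomyces cerevisiae BJ5465 by galactose induction for 36–48 hours. The library was stained for 1 hour at 4 °C with 10% biotinylated, detergent-solubilized Sf9 membrane reagent and enriched with streptavidin microbeads before FACS. Low and high (top ~1%) gates were set on anti-HA fluorescence for expression and streptavidin fluorescence for reagent binding, and each polyreactivity label reflects the gate of origin.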

| Sequence | polyreactivity (PSR sort gate) |
| --- | --- |
| QVQLVESGGGLVQAGGSLRLSCASSGLIFGRNVMGWYRQAPGKERELVAAISWSGGRTYYADSVKGRFTISRDNAKNTVYLQMNSLKPEDTAVYYCAADDGPGFDYWGQGTQVTVSS | high polyreactivity |
| QVQLVESGGGLVQAGGSLRLSCAASGSTFPYPYTMGWYRQAPGKERELVAVNSRTGGSTFYADSVKGRFTISRDNAKNTVYFQMNSLKPEDTAVYYCAARRDGWTFWKYDYWGQGTQVTVSS | high polyreactivity |
| QVELVESGGGLVQAGGRPRLSCAASGSTFAGYAMGWERQAPGKERELVAAISRRGGSTYYADSVKGRFTISRDNAKNTVYLQMNSLKPEDTAVYFFARDYPLHYDYWGQGTQVTVSS | high polyreactivity |
| QVQLVESGGGLVQAGGSLRLSCAASGRTFGYNAMGWNRQAPGKERELVAAINWSGASTYYADSVKGRFTISRDNAKNTVYFQMNSLKPADTAVYYCAADYSYIYGFDYWGQGTQVTVSS | low polyreactivity |
| QVQLVESGGGLVQAGGSLRLSCAASGSTFAEYAMGWYRQAPGKERELVAAIRWSGGSTSYADSVKGRFTMSRDNAKHTVYLQMNSLKPEDTAVYYCAAERFWYDGAVKLYVLSYYWGQGTQVTVSS | low polyreactivity |
| QVQLVESGGGLVQGGGSLRLSCAASGSNLYKNPMGWYRPAPGKERELVASITYSGGRTNYADSVKGRFTISRDTAKNTVYLQMNSLKPEDTSVYYCPAAYVYYNPAYRYAPTAVDYDYWGQGTQVTVSS | low polyreactivity |
| QVQLVESGGGLVQAGCRLRLSCAASGLIFGYYHMGWYRQAPGKERELVAAITTGDSTYYADSVKGRFTISRDNAKNTVYLQMNSLKPEDTAVYYCAAYPVWYYEYDYWGQGTQVTVSS | low polyreactivity |
| QVQLVESGGGLVQAGGSLRLSCAASGSIFGGYGMGWYSQAPGKERELVAAITSGSSTYYADSVKGRFTISRDNAKNTVYLLMNSLKPEDTAVYYCAKVSYYPWRYDYWGQGTQVTVTS | low polyreactivity |
| QVQLVESGGGLVQAGGSLRLSCAASGSTFRYNTMGWYRQAPGKERELVAAISTSGGTTYYADSVKGRFTISRDNAKNTVYLQMNSLKPEDTAVYYCAARPFPRRWYGAEDYYWGQGTQVTVSS | high polyreactivity |
| QVQLVESGGGLVQAGGSLRLSCAASGLTIWKYTMGWYRQAPGKERELVAAISISGTNTYYADSVKGRFTISRDNAKNTVYLQMNSLKPEDTAVYYCAAVRGYPPTNYYYWGQGTQVSVSS | high polyreactivity |
| QVQLVESRGGLVQAGGSLRLSCAASGFTFRLYAMGWSRQAPGKERELVAALTGRGGNTYYADSVMGRFTISRDNAKNTVYLQRNSLNPEDTAVYYCNRYTQWVGYDYWGQGTQVTVSS | high polyreactivity |
| QVQLVESGGGLVQAGGSLRLSCAASGSLFRSYAMGWYRQAPGKERELVAAISTRVVNTYYADSVKGRFTISRDNAKNTVYLQMNSLKPEDTAVYYCAALRYRITNVYYWGQGTQVTVSS | high polyreactivity |
| QVQLVESGGGLVQEGGSLRLSCAASGFTFTSNAMGWYRQAPGKERELVAAITYSGGITYYADSVKGRFTISRDNAKNTVYLQMNSLKPEDTAVYYCAADSTPYVLSGNYDYWGQGTQVTVSS | low polyreactivity |
| QVQLVESGGGLVQAGGSLRLSCAASGLTIQYNAMVWYRQAPGKERELVAAISRSGGSTYYADSVKGRFTISRDNAKNTEYLQMISLKPEDTAVYYCNKVSPYRGYYWGQGTQVTVSS | high polyreactivity |
| QVQLVESGGGLVQAGGSLRLSCAASGSTFRWNAMGWYRQAPGKERELVAAISWSGGTTYYADSVKGRFTISRDNAKNTVYLQMNSLKPEDTAVYYCAARTLWQGYWGQGTQVTVSS | high polyreactivity |
| QVQLVESGGGLVQAGGSLRLSCAASGSTFWYYDMGWYRQAPGKERELVAAITSGGRTNYADSVKGRFTISRDNAKNTVYLQMNSLKPEDTAVYYCARGPLSHTALYWRGRYNYWGQGTQVTVSS | high polyreactivity |
| QVQLVESGGGLVQAGGSLRLSCAASGSTFGYYAMGWYRQAPGKERELVATMSATGGSTYYADSVKGRFTISRDKAKNTVYLQMNSLKPEDTAVYYCNAEYDRGNEYDYWGQGTQVTVSS | low polyreactivity |
| QVQLVESGRGLVQAGGSLRISCAPSGITFGRYVMGWYRQAPGKERELVAVISRGGSTNYADSVKGRFTIARDNAKNTDYLQMNSLKPEDSAVYYCAADEWIVHDGYYSSYYYWGQGTQVTVSS | low polyreactivity |
| QVQLVESGGGLVQAGGSLRLSCAASGGIFEAYVMGWYRQAPGKERELVAAISFRGGSTYYADSVKGRFTISRDNAKNTVYLQMNSLKPEDTAVYYCAADYRHQGYDYWGLGTQVTVSS | low polyreactivity |
| QVQLVESGGGLVQAGGSLRLSCAASGFTFTRNAMGWYRQAPGKERELVAASTWSGGSTYYADSVKGRFTISRDNAKNTVYLQMNSLKPEDTAVYDCAALYRSRYYAGDYWGQGTQVTVSS | high polyreactivity |
| QVQLVESGGGLVQAGGSLRLSCAASGYTYEYYAMGWYRQAPGKERELVAAISWSGGDTYYADSVKGRFTISRDNAKNTVYIQMNSLKPEDTAVYYCNAVLYTYYYYANWYGAYDYWGQGTQVTVCS | low polyreactivity |
| QVQLVESGGGLVQAGGSLRLSSAASGSIFIGYAMGWYRQAPGKARELVAAINDSGDRTYYADSVKGRFTISRDNAKNTVFLQMNSLKREDTAVYYCAADLGSLDPEYDYWGQGTQVTVSS | low polyreactivity |

| Sequence | polyreactivity (PSR sort gate) |
| --- | --- |
| QVQLVESGGGLVQAGGSLRLSCAASGRTSRSYAMGWYRQAPGKERELVAAISWSGGSTYYADSVKGRFTMSRDNAKNTVYLQMNSLKPEDTAGYYCNALTLAGYDYWGQGTQVTVSS | high polyreactivity |
| QVQLVESGGGLVQAGGSLRLSCAASGRTFSSNAMGWYRQAPGKERELVAAITYTGTSTYYADSVKGRFTISRDYAKNTVYLQMNSLKPEDTAVYYCAALYVQGTHTYGYWGQGTQVTVSS | high polyreactivity |
| QVQLVESGGGLVQAGGSLRLSCAASGRIFYRYAMGWYRQAPGKERELVATITNGGSTNYADSVKGRFTISRDNAKNTVYLQMNSLKPEDTAVYYCAARLPGYYGIGDYWGQGTQVTVSS | high polyreactivity |
| QVQLVESGGGLVQAGGSLRLICAASGLIFYRNAMGWYRQAPGKERELVAAISSGGRTYYADSVKGRFTISRDNEKNTVYLQMNSLKPEDTAVYYCAASYWKPHRESGYDYWGQGTQVTVSS | high polyreactivity |
| QVQLVESGGGLVQAGGSLRLSCAASGSIFYYYVMGWYRQAPGKERELVAAIRSSGTSTYYADSVKGRFTISRDNAKNTVYLQMNSLKPEDTAVYYCNRARSSSRYDYWGQGTQVTVSS | low polyreactivity |
| QLQLVESGGGLVQAGGSLRLSCADSGSTFRYNVMGWYRQAPGNETQLVAAIRDSGDRTYYADSVKGRFTISRDNAKNTVYLQMNSLKPEDTAVYYCNARWQEPLKYDYWGQGTQVTVSS | low polyreactivity |
| QFQLVESGGGLVQAGGSLRLSCAASGSIFKRYAMGWYRQAAGKERELVAAISSRGGNTYYADSVKGRFTISRDNAKNTVYLQMNSLKPEDTAVYYCAAYLWKSKRKLDYWGQGTQVTVSS | high polyreactivity |
| QVQLVETGGGLVQAGGSLSLSCAASGSILDLNAMGWYRQAPGKERELVAAISSGGGTYYADSVKGRFTISRDNAKNTVYLQMNSLKPEDTAVYYCNRVTRWTYNYWGQGTQVTVSS | high polyreactivity |
| QVQLVESGGGLVQAGGSLRLSCAASGFTSRANAMGWYRQAPWKESELVAVITAGGGSTSYADSVKGRFTISRDNAKNTVYLQMNSLKPEDTAVYYCASTWYGGPYKSYYYWGQGTQVTVSS | low polyreactivity |
| QVQLVESGGGLVQAGGSLRLSCAASGRIFTLYDMGWYRQAPGKERELVAAISNSAGSTYYADSVKGRFTISRDNAKNTVYLQMNSLKPEDTAVYYCAAELWSWWGSRDYWGQGTQVTVSS | high polyreactivity |
| QVQLVESGGGLVQAGGSLRLSCAASGSIFPGYAMGWSRQAPGKERELVAAISTSGGSTYADSVKGRFTISRDNAKNTVYLQMNSLKPEDTAVYYCAATYTYTSPVYYSLDGPWPYDYWGQGTQVTVSS | low polyreactivity |
| QVQLVESGGGLVQAGGSLRLSCAASGRTFYVNAMGWYRQAPGKETELVAAISSGSSTDYADSVKGRFTISRDNAKNTVYLQMNSLKPEDTAVYYCAKRWRRRFVDVWSLYDYWGQGTQVTVSS | low polyreactivity |
| QVQLVESGGGLVQAGGSLRLSCAASGSTLTYNAMGWYRQAPGKERELVAVISARGGRTYYADSVKGRFTISRDNAKNTVYLQMNSLKPEDTAVYYCAAVFYYSYYRITSGDYWGQGTQVTVSS | high polyreactivity |
| QDQLVESGGGLVQSGGSLRLSCAASGFIFPHYAMGWYRPAPGKERELVAAISKSGDSTYYADSVKGRFSISRDNAKNTVYLQMNSLKPEDTAVYYCARRGRSLLWKYDYWRQGTQVTVSS | low polyreactivity |
| QVQLVESGGGLVQAGGSLRLSCAASGSTFQGYTMGWYRQAPGKERELVAAISVRRGITYYADSVKGRFTISRDNAKNTVYLQMNSLKPEDTAVYYCNAYYYRPYGNKYGYWGQGTQVTVSS | high polyreactivity |
| QVQLLESGGGLVQAGGSLRLSCAASGRTFRYNAMGWYRQAPGKERELVAAITGSGGSTYYADSVKGRFTISRDNAKNTVYLQMNSLKPEDTAVYYCARAYSYRLYPYGSWGQGTQVTVSS | high polyreactivity |
| QVQLVESGGGIVQAGGSLRLSCAASGNTFHYYVMGWYRQAPGKERELVAAITYTGGSTYYADSVKGRFTISRDNAKNTVYLQMISLKPEDTAVYYCAAGFSPASQLDYWGQGTQVTVSS | low polyreactivity |
| QVQLVESGGGLVQAGGSLRLSCAASGFIFGLYAMGWYRQAPGKERELVASISRRGGSTYYADSVKGRFTISRDNAKNTVYLQMNSLKPEDTAVYYCNAVGRLYLYGSWGQGTQVTVSS | high polyreactivity |
| QVQLVESGGGVVQARGSLRLSCAASGSPFWYHDMGWYRQAPGKERELVASISWSGGDTYYADSVKGRFTISRDNAKNTVYLQMNSLKTVDTAVYYCAAATLVSFWLDYWGEGTQVTVSS | low polyreactivity |
| QVQLVESGGGLVQAGGSLRLTGAASGRIFRSYAMGWYRQAPGKERELVASISGSTTYYADSVKGRFTISRDNAKNTVYLQMNSLKPEDTAVYYCAVKYDAWGYGYRHFDYWGQGTQVTVSS | low polyreactivity |
| QVQLVESGGGLVQAGGSIRLTSAASGRTFVTHPMGWYRQAPGKDRELVAAISRSGSSTYYADSVKGRFTISRDNAKNSVYLQMNSLKAADTAVYYFARVRSRATEVVEYDYWGQGTQVTVSS | high polyreactivity |
